Experimental findings from US20110189692A1 are described below.

Assay [1] has as its target aggregated Aβ42 from Alzheimer's disease brain homogenate (human) (UniProt P05067).
In assay [2] the target is PrP^Sc, pathogenic conformer of the human prion protein, from vCJD brain homogenate (human) (UniProt P04156).
Assay [3] addresses PrP^C, non-pathogenic human prion protein, from normal brain homogenate (human) (UniProt P04156).
In assay [4] the target is PrP^Sc, pathogenic conformer of the human prion protein, from vCJD brain homogenate (human) (UniProt P04156). This is another data set of the same source.
Assay [5] has as its target tau of normal human brain homogenate (native) (human) (UniProt P10636).

“And” between values parts separate entries of the source, which are not always exact repeats. Equal entries are not always repeated.

In turn, “PSR1 (peptoid reagent XIIb attached to magnetic beads) (designed binder)” had a recovery in assay [1] of 100%. Besides, in assay [2], the ELISA signal after pulldown (RLU, ave) was found to be 53 RLU. The substance also registered an ELISA signal after pulldown (RLU, ave) in assay [3] of 9.9 RLU. In addition, the pulldown efficiency in assay [4] stood at 100%. In assay [5], the tau ELISA signal after pulldown, mean of 3 is 0.11 and 0.12; the tau ELISA signal after pulldown, replicate is 0.11 and 0.12 and 0.13.
